In US12161729B2, “Methods and compositions for visualizing a ureter in a surgical procedure” (ALUME BIOSCIENCES, INC., priority 2021, dated 2024):
Where two headings read alike, the source gives them in different places. Residues, ends and D or L forms follow the SMILES beside them. *: point of attachment. 5FAM = O=C1OC2(c3ccc(O)cc3Oc3cc(O)ccc32)c2ccc(C(=O)*)cc21; FAM = carboxyfluorescein

How the values were obtained:
[1] = system: ureter; experiment: Fluorescent visualization of the ureter after intravenous administration, mouse model; format: in vivo
Experimental: FIG. 1: Bright field and fluorescence overlay image of a ureter in a living wild type mouse following intravenous administration of about 2000 nanomoles of a fluorescent conjugate (SEQ ID NO:747). Images were obtained 2 hours following administration using a customized fluorescence detection microscope. Left panel: White reflectance image. Right panel: fluorescence overlay.
(§1) A rodent model was to use to evaluate the dynamics of fluorescent visualization of 5-FAM-QVPWEEPYYVVKKSSGG-NH2 (HNP401-N-2 with GG linker; SEQ ID NO:747) following intravenous administration. The conjugate was administered in a wide range of amounts and fluorescence was detected using a customized microscope. […] Rather it reflects fluorescence of urine flowing down the ureter from the kidney to the bladder.

[2] = system: ureter; experiment: Time course of ureter illumination in rodent models; format: in vivo; conditions: rodent model
Experimental: as §1
These include molecules consisting of related HNP401 peptides conjugated to FAM, as well as molecules consisting of related HNP401 peptides conjugated to other fluorescent moieties. In addition, the studies presented here allow concurrent visualization of nerves in conjunction with ureters.

[3] = Bioanalysis of fluorescent conjugate in the urine of surgery patients (LC-MS/MS); format: in vivo, human; conditions: for Test Drug (ng/mL) in urine / level at 30 min after infusion: 500 mg intravenous; for level at 30 min after infusion: human, urine, iv, 500 mg, read-out: Test Drug (ng/mL) in urine
Experimental: Urine samples were collected 30 minutes before intravenous administration of 500 mg of parent test drug (corresponding to the fluorescent-conjugated peptide, SEQ ID NO:747), 30 minutes after infusion prior to head and neck surgery, and 22 hours later. The concentration of intact parent test drug was determined by liquid chromatography with tandem mass spectrometry (LC-MS/MS) using a qualified bioanalytical method. Also evaluated was the presence of metabolites M3-M8 (initially identified from in vitro studies) corresponding to shortened versions of the parent peptide conjugated to the fluorescent moiety.

[4] = system: rat sciatic and prostate nerves; conditions: several hours after intravenous administration; cited from earlier work
[5] = system: human resected nerve tissues; conditions: human tissue, topical administration; cited from earlier work
[6] = system: rodent resected nerve tissues; conditions: rodent tissue, topical administration; cited from earlier work
[7] = in vivo; cited from earlier work
[8] = system: nerve; conditions: cited from earlier work; for nerve detection following intravenous administration: rodent models

| Compound | ureter illumination (fluorescence) ([1]; 2 hours following intravenous administration of about 2000 nanomoles (~200 mg/kg)) | ureter illumination (fluorescence) ([1]; intravenous, 100 nanomoles to 2000 nanomoles (~10 mg/kg to ~200 mg/kg)) | time at which fluorescent visualization of the ureter was first observed following conjugate administration ([2]; early observation) | time up to which fluorescent visualization of the ureter was observed following conjugate administration ([2]; extended time course) | detection in urine, number of subjects ([3]; 30-minute time-point, test drug or fluorescent metabolites, five subjects evaluated) | Test Drug (ng/mL) in urine ([3]; Subject 1, 30 min after infusion) | Test Drug (ng/mL) in urine ([3]; Subject 2, 22 hours) | Test Drug (ng/mL) in urine ([3]; Subject 3, 22 hours) | Test Drug (ng/mL) in urine ([3]; Subject 4, 30 min after infusion) | level at 30 min after infusion ([3]; Subject 2, 30 min after infusion) | level at 30 min after infusion ([3]; Subject 3, 30 min after infusion) | level at 30 min after infusion ([3]; Subject 5, 30 min after infusion) | fluorescence in rat sciatic and prostate nerves [4] | fluorescent labeling of resected nerve tissues [5] | fluorescent labeling of resected nerve tissues [6] | half-life in the blood [7] | nerve detection following intravenous administration [8] | serum half-life (as measured by serum fluorescence) [7] | half-life of nerve fluorescence ([8]; in vivo) | persistence of fluorescence in tissues ([8]; in vivo) |
| --- | --- | --- | --- | --- | --- | --- | --- | --- | --- | --- | --- | --- | --- | --- | --- | --- | --- | --- | --- | --- |
| CC(C)[C@H](NC(=O)[C@H](Cc1ccc(O)cc1)NC(=O)[C@H](Cc1ccc(O)cc1)NC(=O)[C@@H]1CCCN1C(=O)[C@H](CCC(=O)O)NC(=O)[C@H](CCC(=O)O)NC(=O)[C@H](Cc1c[nH]c2ccccc12)NC(=O)[C@@H]1CCCN1C(=O)[C@@H](NC(=O)[C@H](CCC(N)=O)NC(=O)c1ccc2c(c1)C(=O)OC21c2ccc(O)cc2Oc2cc(O)ccc21)C(C)C)C(=O)N[C@H](C(=O)N[C@@H](CCCCN)C(=O)N[C@@H](CCCCN)C(=O)N[C@@H](CO)C(=O)N[C@@H](CO)C(=O)NCC(=O)NCC(N)=O)C(C)C [SEQ ID NO:747, 5-FAM-QVPWEEPYYVVKKSSGG-NH2] (5FAM-QVPWEEPYYVVKKSSGG-NH2) | readily illuminated | revealed ureter illumination | less than 1 hour | at least 6 hours | detected in four of five subjects | BQL* (BQL: Below Quantitation Limit (10 ng/ml)) | BQL (BQL: Below Quantitation Limit (10 ng/ml)) | BQL (BQL: Below Quantitation Limit (10 ng/ml)) | BQL (BQL: Below Quantitation Limit (10 ng/ml)) | 11.5 ng/mL | 19 ng/mL | 10.1 ng/mL | – | – | – | – | – | – | – | – |
| FAM-HNP401: FAM conjugated to the C-terminal cysteine of acetylated HNP401 with GCC linker (Ac-SGQVPWEEPYYVVKKSSGGC-CONH2) (Ac-SGQVPWEEPYYVVKKSSGGC(FAM)-NH2) | – | – | – | – | – | – | – | – | – | – | – | – | observed | fluorescent labeling | fluorescent labeling | 15 min | sensitive nerve detection | – | – | – |
| FAM-NP41: carboxyfluorescein (FAM) coupled to the C-terminal lysine of acetylated NP41 (Ac-SHSNTQTLAKAPEHTGK) via a lysinamide linkage (Ac-SHSNTQTLAKAPEHTGK(FAM)-NH2) [reference compound] | – | – | – | – | – | – | – | – | – | – | – | – | – | fluorescent labeling | fluorescent labeling | – | sensitive nerve detection | about ten | about 50 minutes | persist at a low level in tissues for hours |
